Measured values as given in article PMC5347031, “Characterization of long and stable de novo single alpha-helix domains provides novel insight into their stability” (Scientific Reports, 2017).

Molecular target: the molecule itself
Assay: SEC; Superdex 75, 200 μl of 20-40 μM protein, 150 mM NaCl, 10 mM sodium phosphate, 0.03% NaN3, pH 7.4, 0.5 ml/min

B1: EK2 de novo polypeptide (AEEAKKA repeats) (other)
chain: SAEEAKKAAEEAKKAAEEAKKAAEEAKKAAEEAKKAAEEAKKAAEEAKKAAEEAKKAAEEAKKAAEEAKKAAEEAKKAAEEAKKAAEEAKKAAEEAKW
stoichiometry N: ~2
